In publication PMC2800194:

Experiments:
Assay in all cases: fluorescence anisotropy
Details in all cases: Anisotropy: 45 mM Tris pH 8.0, 1 mM CoCl2, 1 mM 2-oxoglutarate, 1 nM DNA, 25 °C, added salt not stated
[1] = test system: AlkB wt (Escherichia coli)
[2] = test system: AlkB T51A (Escherichia coli)
[3] = test system: AlkB Y76A (Escherichia coli)
[4] = biological target: T1, AlkB D135A D135A (Escherichia coli) (UniProt P05050)
T1 sequence: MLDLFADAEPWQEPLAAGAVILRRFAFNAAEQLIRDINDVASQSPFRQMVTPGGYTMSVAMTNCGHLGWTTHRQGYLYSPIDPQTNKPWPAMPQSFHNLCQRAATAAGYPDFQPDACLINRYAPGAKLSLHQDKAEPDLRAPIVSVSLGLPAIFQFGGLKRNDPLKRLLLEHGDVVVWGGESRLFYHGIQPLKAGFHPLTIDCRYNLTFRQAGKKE

[5] = test system: AlkB R161A (Escherichia coli)
[6] = test system: AlkB W69A (Escherichia coli)
[7] = one 1-methyladenine (position not given)
[8] = 1,N6-ethenoadenine (position not given)

Q: 30-mer 1-meA was tested. Which Kd [1, 7] did it give?
A: The Kd was 2 µM.

Q: What about the Kd [2, 7] of the same substance?
A: Its Kd is 1.5 µM.

Q: And the Kd [3, 7]?
A: Its Kd is 11 µM.

Q: What about the Kd [4, 7] of the same substance?
A: The Kd was 0.316 µM.

Q: What about the Kd [5, 7] of the same substance?
A: Its Kd is 9.6 µM.

Q: What about the Kd [6, 7] of the same substance?
A: Its Kd is 5.2 µM.

Q: Which results are given for 30-mer undamaged?
A: Kd [1]: 16 µM; Kd [2]: 51 µM; Kd ([3]; 1 mM Co2+, 1 mM 2-OG): 38 µM; Kd [4]: 4.9 µM; Kd [5]: 20 µM; Kd [6]: 35 µM

Q: 30-mer εA was tested. Which Kd [1, 8] did it give?
A: Its Kd is 1.2 µM.

Q: And the Kd [2, 8]?
A: The Kd was 2.7 µM.

Q: What about the Kd [3, 8] of the same substance?
A: Its Kd is 22 µM.

Q: What about the Kd [4, 8] of the same substance?
A: Its Kd is 0.127 µM.

Q: And the Kd [5, 8]?
A: Its Kd is 8 µM.

Q: What about the Kd [6, 8] of the same substance?
A: The Kd was 7.8 µM.
